# According to the RNAGym collection of RNA variant scans (doi:10.1073/pnas.2313332121):
# Variants at the floor of the assay were thinned out.
# B1: TPR 5TU (parent)
# chain: GGAUCUUCUCGAUCUAACAAAAAAGACAAAUCUGCCACAAAGCUUGAGAGCAUCUUCGGAUGCAGAGGCGGCAGCCUUCGGUGGCGCGAUAGCGCCAACGUUCUCAACUAUGACACGCAAAACGCGUGCUCCGUUGAAUGGAGUUUAUCAUG
# Variants of: B1
# Assay: polymerase ribozyme fitness, log enrichment relative to wild type (log ratio); higher = more active; in vitro selection for triplet polymerase activity
# Summary of the method: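 Streptavidin-bead capture of gel-excised extended constructs, followed by RT-PCR, closed a single triplicate in vitro selection round. That round began by annealing PCR-built, transcribed mutant libraries of each subunit of a heterodimeric triplet polymerase ribozyme with a biotinylated primer, the partner subunit and triplets, then incubating them frozen at −7 °C. After Illumina sequencing of inputs and outputs, genotypes needed ≥10 input reads and ≥1 read per output. Fitness is the base-2 logarithm of genotype enrichment over wild-type enrichment, using inverse-variance-weighted replicate averages.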
row,Variant,polymerase ribozyme fitness (log ratio)
1,C14A A39U A52U C87A C95U C96U G100U C125A,≤ -4.2
2,C14G G80A,-1.72
3,A12U A41C U55G A66G G88U G94U U134A G136C U151A,≤ -4.2
4,U13C A22C U53A C116A,0.349
5,C14A A115G,-2.5
6,C14U A52G G62A C96G U104G,≤ -4.2
7,C14U A26G C38U U61G C87A U90A,-3.51
8,C14A A19U U33G C69A C75G C96A A97G A106C G140C,≤ -4.2
9,U13A A37G C93U,-3.74
10,C14G A17C,-2.89
11,C14U C85A G141C,-2.63
12,C14A A41C C51U A64U C76A A89G C95A G128A A150U,≤ -4.2
13,C14G U53G U77G A91U,≤ -4.2
14,C14G A23U A52C G84A C118U,≤ -4.2
15,C14G G34U A41C U77G G83U A115G U135G,≤ -4.2
16,C14U A17U C38G A60U,-2.73
17,C14U A39G C93U G143A,≤ -4.2
18,C14G G50U U56G G59C C108U,≤ -4.2
19,A12U A47U C95U A115G,-2.31
20,U13G A16U U33G G50C G81C G143A,≤ -4.2
21,U13A A23U U31A A37C G84U C125A G140A G152U,≤ -4.2
22,C14G G50A C54U C93A U139A,≤ -4.2
23,U13A C85U G136U,-3.3
24,U13G A23U A37C G83A C96U,≤ -4.2

row,Variant,polymerase ribozyme fitness (log ratio)
1,C14A G25U U82G G94U,≤ -4.2
2,C14U C75G U101G U135A,≤ -4.2
3,C14G C87U,-2.29
4,C14G C87G,≤ -4.2
5,U13C A16U U33A C54G G67C G133U U144A,≤ -4.2
6,C14G A24G A26G A39C A66C C105U A107U,≤ -4.2
7,C14U C27G C35G A39U U82A G86A A97U,≤ -4.2
8,C14U A41U C69A C85U,≤ -4.2
9,U13G G42C A49U G65A G71A G92A,-3.74
10,C14A U61A,-3.22
11,U13A A17U U45C G50A G83C C87U U104G G140A,≤ -4.2
12,U13C C51U G59C G92U A115G G143C,-3.61
13,U13A A37U C96U G126U,-2.85
14,C14G C32A U61G A120C,≤ -4.2
15,C14G A47C A52G A115C A119G,≤ -4.2
16,A12U C38A G59U C87A A97U,≤ -4.2
17,U13A A113U,-2.5
18,C14G U31G G86C U102G,≤ -4.2
19,U13G G59A,-1.2
20,U13G C27U C32G U56G C93U,≤ -4.2
21,A12U A22G U45A A49U A115G,≤ -4.2
22,U13G C93A G141U,-4.01
23,A12U A24U G81U G84A,0.337
24,A12U C14G A20G A73G U77A G86U C96U G117U,≤ -4.2

row,Variant,polymerase ribozyme fitness (log ratio)
1,C14G U55A,-2.86
2,C14G U55C C57A A66G G81A C85U,≤ -4.2
3,U13C A40G C43U C87U G128C U139A,≤ -4.2
4,C14G U15C C85U A121C G126A,-0.0533
5,C14U G46A U55G,-3.69
6,C14G C69A C96U C118U,≤ -4.2
7,U13A A49C G50C C51U G62C C76A G81A C85U G112A G124U,≤ -4.2
8,C14G G50U C87A G112C C123U U148G,≤ -4.2
9,C14G A28U A29C C32G U44G C63U G83A G86C C105U C108U G143U,≤ -4.2
10,U13A U61A,-1.8
11,U13G C32U G88C A97U,≤ -4.2
12,U13G C32A C93A U127G,≤ -4.2
13,U13G A19U C51U A97U,-2.04
14,C14U G42A G59A C87A,≤ -4.2
15,C14G A19C A22C U61A A91U C105G C108G C114U A120G,≤ -4.2
16,U13G A20C C27U U61A C99A,≤ -4.2
17,C14A A22G G86U G140C,≤ -4.2
18,C14G A19U C116A,-2.21
19,C14G A26G C27A U44A U45C C72A U151G,≤ -4.2
20,C14U A23U A37C A52G G58C C85G A119C A137U,≤ -4.2
21,C14G C54U A64G A66C U82G A97G G140U,≤ -4.2
22,A12U A37C U45A U55A C85U G92A,≤ -4.2
23,C14A G141C,-1.87
24,C14A G141U,-0.0158

row,Variant,polymerase ribozyme fitness (log ratio)
1,U13C C96A C99U,-1.75
2,U13A C54A A91C,≤ -4.2
3,C14U C51U U56A A119G,-2.23
4,U13A C54A G84U G88U,≤ -4.2
5,U13A A21U U55C G62C U82A G100C C105G G112U C131U,≤ -4.2
6,C14A C72U G81U C95U,-2.42
7,C14G A26U A28G C35A U56C C57U U90G,≤ -4.2
8,A12U C76G C99U C132G,≤ -4.2
9,U13G U82A C96U U130A,-3.83
10,A12U A29C C87A G94U,≤ -4.2
11,C14A A37U G84A C125U,-3.95
12,C14G C96U U134C,-2.72
13,U13G C18G C27U A40U A64U,≤ -4.2
14,A12U C27G A41G C87U A91G G140U,≤ -4.2
15,U13G U53A C85A C95U A98U G141C,≤ -4.2
16,C14G U77G G80U C85A,≤ -4.2
17,A12U G58C C95A,-1.44
18,A12U C32A A41C C103U,≤ -4.2
19,C14U C99A G136A,-2.47
20,U13G G59U C85U G94U G112A C116A,≤ -4.2
21,U13A C32A G42A C75A C76U C87G A106C A138U G141C,≤ -4.2
22,C14G A47C A60U G65A,≤ -4.2
23,U13A A47G U82G C95G,-3.73
24,C14U A91G C116U U134A,≤ -4.2

row,Variant,polymerase ribozyme fitness (log ratio)
1,A12U A49U A52C G67A C72A C85A G86C A119U,≤ -4.2
2,A12U U13G A52U C54A,≤ -4.2
3,U13G C36U A52G G70A G84U,-0.614
4,A12U U56A C93U,-1.4
5,U13G G84A,-0.636
6,C14G U56A C96U,-3.43
7,A12U G84U G141C,-2.48
8,C14A U55G U56A G92U A150G,-4.11
9,C14A C54U C118U G136U,-4.12
10,C14A G59U G94U C125G U134A U151G,≤ -4.2
11,U13G A66C G80U G83C U101C U139C,≤ -4.2
12,C14A A16U G86A C87G,-3.84
13,U13C A16G A19C U56A G136U U145G,-3.34
14,C14U C36G G71U A122U G124U,≤ -4.2
15,U13A C72U U82C,-1.38
16,A12U G59C A89U A91U U101C U144C,≤ -4.2
17,C14U A49G U53A C85U C116A,-3.48
18,C14G A30G A52C C72A C95G C103G,≤ -4.2
19,U13G A37U C76G G84U A107U C123U U139G,≤ -4.2
20,U13C A20U G48C C96G,-2.62
21,C14U A40U A41U A49U A73G G92A C125U,-4.11
22,U13G C18G A22G C54A G100C C116G A120U A147C,≤ -4.2
23,C14A A23U U31C U44A A73G G83C A110G,≤ -4.2
24,U13G C14U A60C G88U A122U U134A,≤ -4.2

row,Variant,polymerase ribozyme fitness (log ratio)
1,U13G A23C C32U G59U C85G C105G A106U C116G U134A,≤ -4.2
2,A12U C105G C118A,-2.62
3,A12U C14A G58C C85A,-3.13
4,C14G A19G C43U G86A U104G C108G A122C,≤ -4.2
5,A12U G126A,-0.204
6,C14U C85A,-2.54
7,C14G A23U A41U U78C G80C G81U C96U A110U G143U,≤ -4.2
8,C14G G86U,-3.77
9,U13A A24U C96G,-1.33
10,A12U G50A C85A C87U G133C,≤ -4.2
11,C14U A52G U53G G74A A91C C96U G141U,≤ -4.2
12,U13C A41U U55A C96U C118A,-2.88
13,A12U C18A C51A U55G C87U G94A G143U,≤ -4.2
14,C14A C72U,-1.72
15,A12U G117C U134C,-0.516
16,U13G C14A C72U G83A G117U,-2.88
17,A12U C36U U61G G67A U82G A106G A138U,-4.08
18,U13G A49C G152U,≤ -4.2
19,A12U C93G,-3.28
20,U13G A47G G48A A89C C93U C99G,≤ -4.2
21,C14U A16G U56A,-2.11
22,U13A A47U G86U C132U G140A,-3.17
23,C14G A29U,-3.98
24,C14U C51U A66G C87A C116U U148C,≤ -4.2

row,Variant,polymerase ribozyme fitness (log ratio)
1,C14G A22G G94A C118G A150C,≤ -4.2
2,A12U A22G C35U G58A A91C A98G C116G,-4.07
3,U13G A16U G42C G84A,≤ -4.2
4,U13G G58C A122C,-1.1
5,C14U A22G A39G G71A C93U G152C,≤ -4.2
6,A12U A21G C95U C99A G126A C132U,-3.58
7,C14U A66U U78C,≤ -4.2
8,A12U C96A,-0.787
9,U13A A41C C43G A60C A138G A150G,≤ -4.2
10,C14U C76G,≤ -4.2
11,C14U A26G G92C,≤ -4.2
12,U13C G25A A29C C36G C118A,-4.18
13,C14A A20U A47U C76U C85A C95U A115U C131G,≤ -4.2
14,U13C A121U A142C,-2.44
15,C14G C54A C57A G62A U78A C85U G88A A115U,≤ -4.2
16,A12U A29G A37U A47U U55A G84U A89G A120C G140C U144G,≤ -4.2
17,C14G G80U G84U C132A,≤ -4.2
18,U13A G58U C96A A120U U145C,-1.29
19,U13A A22C G50A G84A A121U,-2.93
20,U13G A17U G88A C96G,≤ -4.2
21,C14G C32G C76A U139A,≤ -4.2
22,A12U U55C A137C,-4.12
23,C14G G34A C85A,≤ -4.2
